Results reported in article PMC11754111 (2025).
Where no end group is shown, it is not given here.

T1: JARID1A PHD finger
T1 chain: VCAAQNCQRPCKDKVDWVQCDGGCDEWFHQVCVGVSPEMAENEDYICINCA

T2: BPTF PHD finger
T2 chain: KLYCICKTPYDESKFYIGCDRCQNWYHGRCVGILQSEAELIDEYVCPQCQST

T3: JMJDA Tudor domain
T3 chain: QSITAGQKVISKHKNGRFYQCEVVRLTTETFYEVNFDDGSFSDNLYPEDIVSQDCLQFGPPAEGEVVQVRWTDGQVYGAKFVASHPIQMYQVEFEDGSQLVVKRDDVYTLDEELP

T4: TAF3 PHD finger
T4 chain: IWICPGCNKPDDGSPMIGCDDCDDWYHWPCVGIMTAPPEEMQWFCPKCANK

B1: H3K4me3Q5ser histone H3 tail peptide (ITC) (peptide)
chain: ARTKQTARKSTGGKA
modifications: trimethyl-lysine at 4; serotonylated glutamine at 5; C-terminal amide (general statement of the peptide synthesis)
B2: H3K4me3Q5his histone H3 tail peptide (ITC) (peptide)
chain: ARTKQTARKSTGGKA
modifications: trimethyl-lysine at 4; histaminylated glutamine at 5; C-terminal amide (general statement of the peptide synthesis)
B3: H3Q5ser histone H3 tail peptide (ITC) (peptide)
chain: ARTKQTARKSTGGKA
modifications: serotonylated glutamine at 5; C-terminal amide (general statement of the peptide synthesis)
B4: H3Q5his histone H3 tail peptide (ITC and crystal) (peptide)
chain: ARTKQTARKSTGGKA
modifications: histaminylated glutamine at 5; C-terminal amide (general statement of the peptide synthesis)

Columns and labels:
Assay in all cases: ITC
JARID1A PHD finger = biological target: T1, JARID1A PHD finger
BPTF PHD finger = biological target: T2, BPTF PHD finger
JMJDA Tudor domain = biological target: T3, JMJDA Tudor domain
TAF3 PHD finger = biological target: T4, TAF3 PHD finger

Binder	Kd (JARID1A PHD finger)	Kd (BPTF PHD finger)	Kd (JMJDA Tudor domain)	Kd (TAF3 PHD finger)
ARTK(Me3)QTARKSTGGKA-NH2 [H3K4me3 histone H3 tail peptide (ITC)]	1.68 µM	1.81 µM		
B1	2.9 µM	2.72 µM	3.61 µM	
B2	1.85 µM	1.94 µM	2.3 µM	
B3				3.79 µM
ARTKQTARKSTGGKA-NH2 [unmodified histone H3 N-terminal tail peptide (ITC)]				21.5 µM
B4				7.94 µM
